# Data from paper doi:10.1101/2020.01.14.906479 (bioRxiv, 2020).
# Square brackets hold non-standard residues; d marks the D form. Ends that are not written are not given here. pS = N[C@@H](COP(=O)(O)O)C(=O)O
# B1: phosphopeptide 2 (Mode II 14-3-3 recognition motif, RLYHpSLPA) (peptide)
# peptide: RLYH[pS]LPA
# B2: phosphopeptide 1 (Mode I 14-3-3 recognition motif, ARSHpSYPA) (peptide)
# peptide: ARSH[pS]YPA
# Target: T1, recombinant Plasmodium falciparum 14-3-3I (GST-14-3-3I fusion protein) (P. falciparum 3D7, UniProt C0H4V6 1-262)
# T1 sequence (looked up): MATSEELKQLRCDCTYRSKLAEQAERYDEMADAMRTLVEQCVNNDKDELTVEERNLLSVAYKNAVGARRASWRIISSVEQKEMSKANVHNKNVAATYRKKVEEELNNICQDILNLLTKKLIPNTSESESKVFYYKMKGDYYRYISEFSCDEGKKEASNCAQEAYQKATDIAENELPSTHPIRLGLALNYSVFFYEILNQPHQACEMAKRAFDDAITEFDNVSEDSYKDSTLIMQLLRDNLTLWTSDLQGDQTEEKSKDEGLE
# Assay: ITC
Binder,Ka [M⁻¹],dH [kcal/mol]
B1,830000,-1.52 ± 0.096
B2,1.7e+06,-11.3 ± 4.27
